Results published in patent US6951717.

The substances below were run against viral gp41 (HIV-1 transmembrane protein) of HIV-1IIIB (HIV-1IIIB) (UniProt P04578) (assay: cell-based or functional assay).
“DP107 (SEQ ID NO:25), synthetic peptide corresponding to amino acids 558 to 595 of HIV-1LAI gp41” gave a Cell fusion (IC90) of 1000 nM and an HIV infectivity (IC90) of 1000 nM. For “M41 (maltose binding protein fused to the extracellular domain of HIV-1 gp41, residues 540-686) (from UniProt P0AEX9 27-392; P03377 540-686)”, the Cell fusion (IC90) was over 50000 nM and the HIV infectivity (IC90) was over 16000 nM. Substance “M41-P (M41 with an Ile to Pro mutation at position 578) (from UniProt P0AEX9 27-392; P03377 540-686)” has a Cell fusion (IC90) of 83 nM and an HIV infectivity (IC90) of 66 nM. “DP178 (SEQ ID NO:1), synthetic peptide corresponding to amino acids 638 to 673 of HIV-1LAI gp41” gave a Cell fusion (IC90) of 1 nM and an HIV infectivity (IC90) of 80 nM.
